Data published in article PMC4068993, “Chlamydia pneumoniae CopD Translocator Protein Plays a Critical Role in Type III Secretion (T3S) and Infection” (PLoS ONE, 2014).
Where “and” joins values, the source holds several entries; their conditions need not be identical. Identical values can stand only once.

Tests used:
[1] = target: Full length His-CopD (Chlamydia pneumoniae CWL029) (UniProt Q9Z798); experiment: SEC; co-expressed and Ni-NTA purified His-CopD and LcrH_1-S-tag (300 µL, 4.5 mg/mL), Superdex S200 10/300 GL, PBS + 0.03% LDAO, 0.5 mL/min; fractions blotted with anti-His and anti-S-tag; sizes from column standards
[2] = target: the molecule itself; experiment: as above

Molecule | stoichiometry N (LcrH 1 per CopD) [1] | stoichiometry N [2]
LcrH_1-S-tag (natural protein) | 1 | 
Full length His-CopD (natural protein, CopD (Cpn0808), Chlamydia pneumoniae CWL029, 444 amino acids (44.5 kDa); Eluted from SEC as decamer, tetramer and monomer; also called Cpn0808; source: E. coli Rosetta pLysS, co-expressed with LcrH_1-S-tag (pET-DUET), purified (Ni-NTA); not shown: 6×His, N-terminal, kept) MTSGVSGSSSQDPTLAAQLAQSSQKAGNAQSGHDTKNVTKQGAQAEVAAGGFEDLIQDASAQSTGKKEATSSTTKSSKGEKSEKSGKSKSSTSVASASETATAQAVQGPKGLRQNNYDSPSLPTPEAQTINGIVLKKGMGTLALLGLVMTLMANAAGESWKASFQSQNQAIRSQVESAPAIGEAIKRQANHQASATEAQAKQSLISGIVNIVGFTVSVGAGIFSAAKGATSALKSASFAKETGASAAGGAASKALTSASSSVQQTMASTAKAATTAASSAGSAATKAAANLTDDMAAAASKMASDGASKASGGLFGEVLNKPNWSEKVSRGMNVVKTQGARVASFAGNALSSSMQMSQLMHGLTAAVEGLSAGQTGIEVAHHQRLAGQAEAQAEVLKQMSSVYGQQAGQAGQLQEQAMQSFNTALQTLQNIADSQTQTTSAIFN |  | 10 and 4
